Laboratory results taken from US20160362487A1 (Regeneron, published 2016).

T1: cynomolgus monkey IL-33 expressed with a C-terminal hexahistidine tag (cynomolgus monkey)
T1 construct: also called MfIL-33-6His; Mf-IL-33-6His
T1 chain: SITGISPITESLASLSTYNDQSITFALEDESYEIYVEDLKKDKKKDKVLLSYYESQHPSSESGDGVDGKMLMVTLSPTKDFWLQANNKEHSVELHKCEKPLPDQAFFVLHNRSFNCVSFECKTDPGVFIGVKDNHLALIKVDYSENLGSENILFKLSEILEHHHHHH

T2: human IL-33 (R&D Systems, #3625-IL-010/CF) (human, UniProt O95760 112-270)
T2 construct: Commercial recombinant protein; also called hIL-33; interleukin-33
T2 sequence (looked up): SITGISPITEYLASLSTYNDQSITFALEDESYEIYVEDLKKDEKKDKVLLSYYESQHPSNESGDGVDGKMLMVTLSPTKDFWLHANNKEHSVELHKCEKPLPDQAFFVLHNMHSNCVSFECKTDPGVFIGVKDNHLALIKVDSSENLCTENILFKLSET


Experiments:
[1] = target: T1, cynomolgus monkey IL-33 expressed with …; assay: SPR 37C pH7.4, mAb captured
Procedure: (§1) Equilibrium dissociation constants (KD values) for IL-33 binding to purified anti-IL-33 monoclonal antibodies were determined using a real-time surface plasmon resonance biosensor using a Biacore 4000 instrument. The Biacore sensor surface was first derivatized by amine coupling with either a polyclonal rabbit anti-mouse antibody (GE, # BR-1008-38) or with a monoclonal mouse anti-human Fc antibody (GE, # BR-1008-39) to capture anti-IL-33 monoclonal antibodies expressed with mouse or with human IgG4 constant regions, respectively. All Biacore binding studies were performed in 0.01M ADA pH 7.4, 0.15M NaCl, 3 mM EDTA, and 0.05% v/v Surfactant Tween-20 (ABS-ET running buffer). […] Association of either hIL-33 or MfIL-33-6His to the captured monoclonal antibody was monitored for 4 minutes and their dissociation in ABS-ET running buffer was monitored for 10 minutes. The effect of reduced pH on the binding of each anti-IL-33 antibody to either hIL-33 or MfIL-33-6His was studied using an in-line pH chase assay format in 0.01M ADA pH 6.0, 0.15M NaCl, 3 mM EDTA, and 0.05% v/v Surfactant Tween-20 (ABS-ET pH6 buffer). To achieve this, association of either hIL-33 or MfIL-33-6His to the captured monoclonal antibody was monitored for 4 minutes in ABS-ET running buffer. Following a 30 second dissociation of either hIL-33 or MfIL-33-6His in ABS-ET running buffer, ABS-ET pH6 buffer was injected for 3 minutes, and the analyte dissociation under the low-pH conditions was measured. All the binding kinetic experiments were performed at both 25° C. and 37° C. Kinetic association (kₐ) and dissociation (kd) constants were determined by fitting the real-time sensorgrams to a 1:1 binding model using Scrubber 2.0c curve fitting software. Binding dissociation equilibrium constants (KD) and dissociative half-lives (t½) were calculated from the kinetic rate constants as: […]

[2] = target: T1, cynomolgus monkey IL-33 expressed with …; assay: BLI; mAb-1 on captured MfIL-33-6His
Procedure: (§2) Binding competition between a panel of different anti-IL-33 monoclonal antibodies was determined using a real time, label-free bio-layer interferometry assay on an Octet® HTX biosensor (ForteBio, A Division of Pall Life Sciences). The experiment was performed at 25° C. using a buffer of 0.01M HEPES pH7.4, 0.15M NaCl, 3 mM EDTA, 0.05% v/v Surfactant Tween-20, and 0.1 mg/ml BSA (HBS-ET kinetics buffer) with the plate shaking at a speed of 1000 rpm. […] The antigen-captured biosensors were then saturated with a first anti-IL-33 monoclonal antibody (subsequently referred to as mAb-1) by immersion into wells containing 50 μg/mL solution of mAb-1 for 5 minutes. The biosensors were then dipped into wells containing a 50 μg/mL solution of a second anti-IL-33 monoclonal antibody (subsequently referred to as mAb-2) for 4 minutes. The biosensors were washed in HBS-ET kinetics buffer in between every step of the experiment. The real-time binding response was monitored during the experiment, and the maximum binding response for each binding step was recorded. The response of mAb-2 binding to MfIL-33-6His pre-complexed with mAb-1 was measured, and competitive/non-competitive behavior of different anti-IL-33 monoclonal antibodies with respect to each other was determined.

[3] = target: T1, cynomolgus monkey IL-33 expressed with …; assay: cell-based or functional assay
[4] = target: T3, pre-formed complex of hIL-33 and captured hST2-MMH (human, UniProt O95760 112-270); assay: SPR 25C, 100 nM mAb over hIL-33/hST2-MMH complex
T3 construct: Ligand-receptor complex on the sensor: hST2-MMH captured by anti-myc mAb and saturated with 100 nM hIL-33; also called hIL-33 pre-complexed with hST2-MMH
Procedure: The ability of anti-IL-33 antibodies to bind to a pre-formed complex of IL-33 with ST2 was tested using Biacore T-200 instrument equipped with a real-time surface plasmon resonance biosensor. The experiment was performed at 25° C. with a running buffer composed of 0.01M HEPES pH 7.4, 0.15M NaCl, 3 mM EDTA, and 0.05% v/v Surfactant Tween-20 (HBS-ET). […] The captured hST2-MMH surface was then saturated by injecting 100 nM of human IL-33 (hIL-33; R&D Systems, #3625-IL-010/CF) for 3 minutes followed by a 3 minute injection of a 100 nM solution of the anti-IL-33 monoclonal antibody. The real-time binding response was monitored during the entire course of the experiment, and the observed binding response at 3 minutes after injection of anti-IL-33 antibody to the pre-formed complex of hIL-33 and captured hST2-MMH was recorded and tabulated and shown in Table 7. No non-specific binding of anti-IL-33 monoclonal antibody to the anti-myc tag capture surface was observed.

[5] = target: T1, cynomolgus monkey IL-33 expressed with …; assay: BLI; captured MfIL-33-6His, mAb-1 step with Buffer
Procedure: as §2

[6] = target: T2, human IL-33 (R&D Systems, …); assay: SPR 37C pH7.4, mAb captured
Procedure: as §1

Row | Binder | Kd [1] | koff [1] | kon [1] | t½ [1] | mAb-1 Binding (nm) [2] | IC50, inhibition of 5 pM MfIL-33-6His activation of HEK293/hST2/NFkB-luciferase cells [3] | Antibody Binding Response (RU) [4] | mAb-2 Binding to the Pre-complex of mAb-1 & MfIL-33-6xHis [5] | Kd [6] | koff [6] | kon [6] | t½ [6]
1 | H1M9568N (antibody, mouse IgG1, V domains shown, Human variable domains, mouse IgG1 Fc (H1M)) VH: QVLLVQSGAEVKKPGATVKVSCKASGSTFTGYYMHWVRQAPGQGLEWMGWINPNNGGTNYAQKFQGRVTMTRDTSISTAYMELSRLRSDDTAVYYCARELRYNWKSWGQGTLVTVSS VL: EIVLTQSPGTLSLSPGERVTLSCRASQSVGRPYLAWYQQIPGQAPRLLIYGASSRATDIPDRFSGNGSGTDFTLTISRLEPEDFAVYYCQQYDNSPYTFGQGTRLEIK | 4.46 nM | 0.00173 s⁻¹ | 389000 M⁻¹ s⁻¹ | 7 min | 0.5 nm | 3.5e-09 M | 131 RU | 0.37 nm | 1.43 nM | 0.000961 s⁻¹ | 672000 M⁻¹ s⁻¹ | 12 min
2 | H4H9629P (antibody, human IgG4, V domains shown, Human IgG4 Fc (H4H)) VH: EVQLVESGGGLVQPGGSLRLSCAASGFTFRSFAMSWVRQAPGKGLELVSDLRTSGGSTYYADSVKGRLTISRDNSKNTLYLQMNSLRAEDTAVYYCAKSHYSTSWFGGFDYWGQGTLVTVSS VL: DIQMTQSPSSVSASVGDRVTITCRASQGFSSWLAWYQQKPGKAPKLLIYAASSLQSGVPSRFSGSGSGTDFTLTITNLQPEDFATYYCQQANSFPLTFGGGTKVEIK | 32.4 nM | 0.0347 s⁻¹ | 1.07e+06 M⁻¹ s⁻¹ | 0.3 min | 0.72 nm | 5.5e-08 M | -1 RU | 0.3 nm | 0.508 nM | 0.000646 s⁻¹ | 1.27e+06 M⁻¹ s⁻¹ | 18 min
3 | H4H9633P (antibody, human IgG4, V domains shown, Human IgG4 Fc (H4H)) VH: EVQLVESGGGLVQPGGSLRLSCAASGFTFSSYVMSWVRQAPGKGLEWVSSISGNGGSTNYADSVKGRFTISRDNSKNTLFLEMNSLRAEDTAVYYCAKSLGTTTTFLGFDYWGQGTLVTVSS VL: DIQMTQSPSSVSASVGDRVTITCRASQGISSWLAWYQQKPGKAPKLLIYAASSLQSGVPSRFSGSGSGTYFTLTISSLQPEDFATYYCQQANSFPLTFGGGTKVEIK | 48.6 nM | 0.0227 s⁻¹ | 468000 M⁻¹ s⁻¹ | 0.5 min | 0.64 nm | 1.3e-07 M | -1 RU | 0.32 nm | 0.931 nM | 0.000689 s⁻¹ | 740000 M⁻¹ s⁻¹ | 17 min
4 | H4H9640P (antibody, human IgG4, V domains shown, Human IgG4 Fc (H4H)) VH: QVQLQESGPGLVKPSETLSLTCTVSGGSISSYYWSWIRQPPGKGLELIGYIYYSGSTNYNPSLKSRVTISVDTSKNHFSLKLSSVTAADTAVYYCARSQYTSSWYGSFDIWGQGTMVTVSS VL: DIQMTQSPSSVSASVGDRVTITCRASQGISTWLAWFQQKPGKAPKLLIYAASTLQGGVPSRFSGSGSGPEFTLTISSLQPEDFATYYCQQANSFPWTFGQGTKVEIK | 5.38 nM | 0.00436 s⁻¹ | 810000 M⁻¹ s⁻¹ | 2.6 min | 0.61 nm | 1.4e-08 M | -1 RU | 0.33 nm | 0.498 nM | 0.000573 s⁻¹ | 1.15e+06 M⁻¹ s⁻¹ | 20 min

Now those with a lower Kd [1], led by results:

Row | Kd [1] | koff [1] | kon [1] | t½ [1] | mAb-1 Binding (nm) [2] | IC50, inhibition of 5 pM MfIL-33-6His activation of HEK293/hST2/NFkB-luciferase cells [3] | Antibody Binding Response (RU) [4] | mAb-2 Binding to the Pre-complex of mAb-1 & MfIL-33-6xHis [5] | Kd [6] | koff [6] | kon [6] | t½ [6] | Binder
5 | 3.11 nM | 0.00186 s⁻¹ | 598000 M⁻¹ s⁻¹ | 6 min | 0.56 nm | 3.3e-09 M | -1 RU | 0.31 nm | 0.57 nM | 0.000403 s⁻¹ | 707000 M⁻¹ s⁻¹ | 29 min | H4H9659P (antibody, human IgG4, V domains shown, Human IgG4 Fc (H4H)) VH: QVQLVQSGAEVKKPGASVKVSCKASGYTFNSYGISWVRQAPGQGLEWMGWISSHNGNSHYVQKFQGRVSMTTDTSTSTAYMELRSLRSDDTAVYYCARHSYTTSWYGGFDYWGQGTLVTVSS VL: DIQMTQSPSSVSASVGDRVTITCRASQGFSSWLAWYQQKPGKAPQLLIYAASSLQSGVPSRFSGSGSGSDFTLTISSLQPEDFATYYCQQANSFPLTFGGGTKVEIK
6 | 2.59 nM | 0.000202 s⁻¹ | 78200 M⁻¹ s⁻¹ | 57 min | 0.46 nm | 1.7e-08 M | 11 RU | 0.34 nm | – | – | – | – | H1M9565N (antibody, mouse IgG1, V domains shown, Human variable domains, mouse IgG1 Fc (H1M)) VH: QVTLKESGPVLVKPTESLTLTCSVSGFSLSNVRMGVSWIRQSPGKALEWLAHIFSNDEKSYTTSLKTRLTISKDTSRSQVVLTMTDMDPGDTATYYCARIRNLAFNYWGQGTLVTVSS VL: not shown
7 | 1 nM | 0.0004 s⁻¹ | 399000 M⁻¹ s⁻¹ | 29 min | 0.58 nm | 1.5e-09 M | 13 RU | 0.39 nm | 1.7 nM | 0.000283 s⁻¹ | 166000 M⁻¹ s⁻¹ | 41 min | H1M9566N (antibody, mouse IgG1, V domains shown, Human variable domains, mouse IgG1 Fc (H1M)) VH: EVQLLESGGDLVQPGGSLRLSCAASGFTFSSYAMSWVRQAPGKGLEWVSVISGSGSSTDYADSVKGRFTISRDNSRDTLHLQMNSLRAEDTAVYYCAKTFYYFYGLDVWGQGTTVTVSS VL: DIQMTQSPSSLSASLRDRVTITCRASQGISNYLAWYQQKPGKVPKVLIYAASTLQSGVPSRFSGSGSGTVFTLTISSLQTEDVATYYCQKYSSAPFTFGPGTKVDIK
